Reference: US20220380782A1
Read-outs that look alike come from different tables or passages of the source.

Legend:
[1] = target: mAID-EGFP-NLS (arabidopsis)
[2] = target: mAID-EGFP-NLS (arabidopsis); remark: listed apart in the source
[3] = target: RAD21-mAID-Clover (human; arabidopsis) (UniProt O60216)
[4] = target: mAID-EGFP-NLS (arabidopsis); remark: listed apart in the source

RAD21-mAID-Clover (human; arabidopsis), sequence (O60216 other isoform, or with tags, fused parts or gaps): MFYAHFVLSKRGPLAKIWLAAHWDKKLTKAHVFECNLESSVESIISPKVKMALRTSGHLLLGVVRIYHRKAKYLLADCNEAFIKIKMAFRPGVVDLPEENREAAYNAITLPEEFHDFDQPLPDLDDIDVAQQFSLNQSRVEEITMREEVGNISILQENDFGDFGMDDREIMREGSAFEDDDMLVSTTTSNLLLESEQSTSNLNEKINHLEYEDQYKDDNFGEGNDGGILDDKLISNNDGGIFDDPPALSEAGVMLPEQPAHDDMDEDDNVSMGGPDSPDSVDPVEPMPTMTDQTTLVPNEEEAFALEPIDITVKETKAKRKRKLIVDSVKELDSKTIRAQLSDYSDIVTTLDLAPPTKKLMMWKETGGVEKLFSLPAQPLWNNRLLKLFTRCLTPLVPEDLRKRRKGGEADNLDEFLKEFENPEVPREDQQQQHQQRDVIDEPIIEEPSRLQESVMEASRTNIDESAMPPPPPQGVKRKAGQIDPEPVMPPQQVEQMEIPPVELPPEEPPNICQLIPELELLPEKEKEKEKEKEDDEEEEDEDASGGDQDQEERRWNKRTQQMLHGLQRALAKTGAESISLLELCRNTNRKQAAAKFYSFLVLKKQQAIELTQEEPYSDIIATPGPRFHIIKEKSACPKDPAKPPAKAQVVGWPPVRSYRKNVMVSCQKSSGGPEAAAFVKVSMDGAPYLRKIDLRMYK
OsTIR1(WT) (receptor), sequence (chain): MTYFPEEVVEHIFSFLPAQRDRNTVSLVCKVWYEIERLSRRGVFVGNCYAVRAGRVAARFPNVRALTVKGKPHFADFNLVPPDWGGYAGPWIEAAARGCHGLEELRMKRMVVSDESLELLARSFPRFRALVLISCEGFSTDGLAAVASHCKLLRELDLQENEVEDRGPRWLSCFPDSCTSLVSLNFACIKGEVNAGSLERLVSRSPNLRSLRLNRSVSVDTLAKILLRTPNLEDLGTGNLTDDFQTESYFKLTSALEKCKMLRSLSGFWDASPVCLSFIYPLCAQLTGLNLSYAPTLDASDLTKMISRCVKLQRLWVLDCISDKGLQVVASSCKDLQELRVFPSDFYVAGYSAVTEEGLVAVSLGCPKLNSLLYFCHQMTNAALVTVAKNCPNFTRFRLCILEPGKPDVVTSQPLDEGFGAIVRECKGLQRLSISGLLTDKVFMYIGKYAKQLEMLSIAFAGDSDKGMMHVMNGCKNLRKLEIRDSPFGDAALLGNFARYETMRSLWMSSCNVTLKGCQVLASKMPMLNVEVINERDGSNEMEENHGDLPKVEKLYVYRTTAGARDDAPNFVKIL
OsTIR1(WT), sequence (chain): as above

Row | Substance | DC 50 (concentration of 5-Ph-IAA for 50% degradation of the reporter) [1] [nM] | half-life of the reporter after ligand addition (time course) [2] [min] | T1/2 of RAD21-mAC after the addition of a ligand [3] [min] | DC 50 (concentration of IAA (auxin) for 50% degradation of the reporter) [1] [nM] | half-life of the reporter after ligand addition (time course) [4] [min]
1 | OsTIR1(F74G) (receptor) | 0.45 | 62.3 | 11.7 | – | –
2 | OsTIR1(WT) | – | – | 26.5 | – | –
3 | OsTIR1(WT) (receptor) | – | – | – | 300 | 147
